Measured values from the Human Domainome abundance scans (Beltran et al. 2025).

B1: Transitional endoplasmic reticulum ATPase, residues 26 to 106; numbered along this chain, P55072 (parent)
chain: LIVDEAINEDNSVVSLSQPKMDELQLFRGDTVLLKGKKRREAVCIVLSDDTCSDEKIRMNRVVRNNLRVRLGDVISIQPCP

Variants of: B1
Test: abundance fitness (aPCA) (normalised: wild type 0, dead -1); higher = more abundant; growth selection in yeast, the domain comes from the species named
Settings: Homo sapiens

Abundance fitness, by site and new letter:
G36: V -0.218, Y -0.186, N 0.058, I -0.545, L -0.757, C 0.015, D -0.262, F -0.135, E -0.191, R -0.37, S -0.026, Q -0.688, K -0.423, M -0.309, W -0.618, T -0.042, A -0.041
D30: Q 0.103, G -0.107, K -0.257, L -0.468, N -0.176, H -0.11, C 0.035, A 0.005, M -0.047, S -0.175, E 0.108, R -0.258, I -0.68, T -0.051, W -0.286, F -0.638, Y -0.732
R39: G 0.008, Q 0.079, M -0.142, L -0.054, T 0.013, S 0.016, W -0.08, I -0.082, F -0.007, Y -0.136, D 0.008, C 0.034, P -0.079, N -0.17, E 0.056, A -0.001, K -0.041
E41: V -0.213, D -0.125, N -0.383, I -0.312, L -0.296, G -0.269, Y -0.14, P -0.131, S -0.09, T -0.123, H -0.167, Q -0.098, K 0.045, C -0.399
K35: G -0.088, R 0.006, C 0.04, Q 0.078, S 0.031, T 0.117, P -0.869, L -0.058, D -0.455, F -0.247, N 0.032, A -0.096, Y -0.229, W -0.154, E -0.116, M -0.02
R40: N -0.075, Q -0.039, I -0.046, G 0.107, C -0.071, A 0.097, L -0.033, D -0.085, H -0.139, E -0.051, F -0.006, S -0.061, M -0.077, T 0.086, P -0.122, W -0.059, Y 0.073, V 0.027
T31: K 0.077, F -0.198, E 0.041, V -0.104, M -0.004, C -0.262, W -0.134, Y -0.161, R 0.053, A -0.089, G -0.063, I -0.235, H -0.048, S -0.028, D -0.27, N -0.023, P -0.204, L -0.129
A42: C 0.116, S 0.085, R 0.028, M -0.018, G -0.179, Y -0.045, E -0.117, L -0.049, I -0.258, D 0.028, P -0.825, K 0.041, Q -0.003, H 0.027, V -0.065, N -0.147, F 0.037
V32: Q -0.785, C 0.007, P -1.09, F -0.832, W -0.988, R -0.98, G -0.587, I -0.016, E -1.05, T -0.827, A -0.18, M -0.166, S -0.854
L33: P -0.955, G -0.344, E -0.19, H -0.031, I -0.23, S -0.122, K -0.045, W -0.155, Y 0.086, F -0.318, Q -0.109, C 0.055, R -0.068, T -0.03, D -0.572, V 0.042, M 0.019
F27: W -0.101, C 0.045, P -0.238, G 0.016, M -0.045, V 0.044, H 0.028, K -0.023, D 0.069, I -0.04, N -0.022, S 0.085, A 0.042, Y -0.109, R 0.009, L 0.026, T 0.127, Q -0.098, E 0.095
V43: C -0.012, I -0.038, W 0.03, A -0.026, R 0.07, K -0.006, T -0.068, L -0.099, Y 0.072, S -0.052, G -0.289, D -0.093, P -0.26, M 0.098, N -0.176, Q 0.147, E 0.063
G29: H 0.059, A -0.203, E -0.198, S -0.109, F -0.157, Q -0.104, P -1.06, L -0.209, T -0.391, C -0.259, R -0.197, V -0.612, N -0.03, D -0.172, W -0.268, M -0.098
L34: C 0.26, V -0.047, P -1.04, R -0.963, S -0.757, N -0.891, K -0.806, I 0.074, Q -0.461, T -0.558, A -0.292, F -0.856, W -0.777, M -0.073, G -0.46, E -1.01
L24: D -0.759, T -0.705, I -0.338, K -0.98, R -0.509, H -0.366, V -0.429, N -0.47, E -0.709, Q -0.516, Y -0.224, A -0.553, F -0.321, M -0.249, P -0.551, S -0.74, W -0.265, C -0.574, G -0.775
Q25: D 0.048, A -0.116, L -0.149, G -0.045, K -0.013, P -1, R -0.081, F -0.129, N 0.038, V -0.202, Y -0.485, I -0.043, T -0.102, S 0.027, C 0.006, W -0.256, M -0.106, E -0.156, H -0.168
R28: I -0.061, Q -0.008, S -0.009, L 0.012, V 0.021, E 0.094, H 0.226, A 0.085, T 0.034, G -0.027, P -0.012, C 0.053, M 0.011, N 0.093, K 0.064, F -0.401
L26: H -0.609, A -0.36, R -0.939, M -0.047, C -0.346, I -0.078, P -0.859, F -0.285, E -1.02, T -0.462, D -0.768, W -0.447, V -0.027, S -0.838, Q -0.763
K37: P -0.118, W -0.183, N -0.143, I -0.182, L -0.018, A -0.222, E -0.035, S 0.03, C -0.226, M 0.156, G -0.05, T -0.072, F -0.124, D -0.126, R 0.028
K38: T 0.033, L 0.019, S -0.097, N 0.186, V -0.153, H -0.05, R -0.024, G 0.025, A 0.02, Q -0.051, E -0.09, C -0.225, F -0.079, I -0.282, M -0.018, Y -0.088, W -0.011, D -0.11
